Kd data for two substances are collected here from paper PMC7040854.

pKd: −log10 of the molar value.

One assay addresses FGFR2K^R678E (human). Put plainly: NMR CPMG relaxation dispersion.
Another assay deals with FGFR2K^R678G (human). The assay is described as follows: NMR CPMG relaxation dispersion.

As to FGFR2K^R678E (domain or fragment), the pKd – broadly, the Kd on a negative log10 scale, so that one unit is a factor of ten – with FGFR2K^R678E (human) was 2.10.
On to FGFR2K^R678G (domain or fragment), for which, in the assay with FGFR2K^R678G (human), the pKd is 1.26.
